# From PMC5479848, “Drug-Repositioning Screening for Keap1-Nrf2 Binding Inhibitors using Fluorescence Correlation Spectroscopy” (Scientific Reports, 2017)
# Assays:
# [1] = molecular target: Nrf2 9mer peptide, FITC-labeled (Homo sapiens) (UniProt Q16236); assay: FP; details: cited from earlier work
# [2] = molecular target: Nrf2 8mer peptide (Homo sapiens); assay: SPR; details: cited from earlier work
# Keap1 = molecular target: T1, Keap1 (Homo sapiens, UniProt Q14145); assay: FCS displacement of TAMRA-Nrf2 ETGE peptide from purified GST-Keap1-DGR; supported by co-IP; assay type: binding
# T1 construct: GST-Keap1-DGR, residues 315–598 (DGR domain)
# T1 sequence (Q14145 315-598): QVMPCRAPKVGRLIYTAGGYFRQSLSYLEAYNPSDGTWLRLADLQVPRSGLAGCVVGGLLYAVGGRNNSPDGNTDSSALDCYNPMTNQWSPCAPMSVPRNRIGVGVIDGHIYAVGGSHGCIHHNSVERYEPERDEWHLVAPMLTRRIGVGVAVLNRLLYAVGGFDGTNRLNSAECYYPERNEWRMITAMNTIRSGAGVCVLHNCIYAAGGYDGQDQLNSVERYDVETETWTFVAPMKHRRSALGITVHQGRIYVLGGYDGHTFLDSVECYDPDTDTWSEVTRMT
# Sequence of Keap1 (from UniProt Q14145) (Q14145 whole entry): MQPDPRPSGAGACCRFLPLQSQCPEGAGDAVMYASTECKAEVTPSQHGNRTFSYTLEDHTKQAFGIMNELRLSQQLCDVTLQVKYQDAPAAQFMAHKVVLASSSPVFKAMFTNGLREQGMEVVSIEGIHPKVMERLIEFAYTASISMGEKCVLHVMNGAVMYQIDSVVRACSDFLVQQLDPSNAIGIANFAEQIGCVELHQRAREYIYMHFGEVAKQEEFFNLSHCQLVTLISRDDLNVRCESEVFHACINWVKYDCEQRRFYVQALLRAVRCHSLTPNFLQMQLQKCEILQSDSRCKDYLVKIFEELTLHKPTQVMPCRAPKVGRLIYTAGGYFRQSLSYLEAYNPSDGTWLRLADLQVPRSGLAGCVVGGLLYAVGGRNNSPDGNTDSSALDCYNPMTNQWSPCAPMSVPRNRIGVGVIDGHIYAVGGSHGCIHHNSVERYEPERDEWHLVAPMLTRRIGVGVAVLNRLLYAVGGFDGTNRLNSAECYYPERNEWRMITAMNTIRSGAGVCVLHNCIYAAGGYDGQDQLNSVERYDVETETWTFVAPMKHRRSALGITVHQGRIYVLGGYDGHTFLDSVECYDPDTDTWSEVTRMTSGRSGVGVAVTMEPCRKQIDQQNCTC
# Sequence of Nrf2 9mer peptide, FITC-labeled (Homo sapiens) (Q16236 whole entry): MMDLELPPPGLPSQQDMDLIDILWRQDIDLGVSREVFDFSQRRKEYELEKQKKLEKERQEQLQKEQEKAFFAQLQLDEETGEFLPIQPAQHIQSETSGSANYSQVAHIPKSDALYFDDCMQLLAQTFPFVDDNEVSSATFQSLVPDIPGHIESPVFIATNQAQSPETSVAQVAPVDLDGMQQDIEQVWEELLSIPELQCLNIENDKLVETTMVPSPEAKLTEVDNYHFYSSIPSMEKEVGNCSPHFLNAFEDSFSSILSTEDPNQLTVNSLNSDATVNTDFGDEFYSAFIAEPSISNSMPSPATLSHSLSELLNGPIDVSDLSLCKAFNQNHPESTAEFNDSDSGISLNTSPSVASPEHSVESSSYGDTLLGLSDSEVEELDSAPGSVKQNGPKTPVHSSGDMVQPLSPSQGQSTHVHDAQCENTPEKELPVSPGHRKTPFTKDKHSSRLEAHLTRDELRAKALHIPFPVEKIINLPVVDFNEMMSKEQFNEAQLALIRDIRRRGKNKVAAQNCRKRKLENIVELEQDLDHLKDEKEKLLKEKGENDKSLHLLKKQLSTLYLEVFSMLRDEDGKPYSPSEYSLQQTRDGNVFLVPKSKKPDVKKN
Compound,Kd [1],Kd [2],IC50 (Keap1)
Keap1 (from UniProt Q14145),0.0651 µM,> 1 µM,–
chlorophyllin sodium copper salt,–,–,35.7 µM
"O=C1C=Cc2cc(Br)ccc2C1=O [bonaphton, 6-bromo-1,2-naphthoquinone]",–,–,37.9 µM
